Entries after “also recorded” stand apart in the source; their conditions may differ. Each block holds one molecule with its values, some of them ahead of it. Where a SMILES comes first, the peptide text is derived from it. The star is where a group is joined. Cbz = O=C(OCc1ccccc1)*; CH2F = FC*
Key:
[1] = system: clonally-derived CD1 neurospheres; experiment: Neurite extensions / morphology of differentiating neurospheres; assay type: cell-based, mouse; settings: differentiation media up to 5 d, 2.0 μM inhibitor, vs DMSO
Description: Neurospheres were sub-cultured no more than once per collection. The differentiation of neurospheres was initated by plating spheres on poly-L-ornithine coated plates in NeuroCult Differentiation Medium in the absence of bFGF, as per manufacturer's instructions. […] All cultures received fresh media and inhibitor every 24 h for the duration of the experiment. Neurospheres from caspase 3 null embryos (Fernando, P., et al., (2002) Proc Natl Acad Sci USA 99, 11025-11030) were cultured as described above.
Immunocytochemistry: Neurospheres were collected at selected time points, fixed in 4% paraformaldehyde and prepared for immunostaining as previously described (Fernando, P., et al., (2002) Proc Natl Acad Sci USA 99, 11025-11030)). The primary antibody concentrations for anti-nestin, -GFAP, -MBP and -active caspase 3 (BioVision, USA) were titrated on wildtype CD1 neurospheres prior to their experimental use. These antibodies were visualized by counterstaining with either FITC or Cy3 conjugated secondary antibodies (Chemicon USA). Nuclei were localized with 4′,6-Diamidino-2 phenylindole (DAPI) (Sigma, USA). Cells were visualized using either an Axiovert 100 for transmission microscopy or Axioplan 2 for fluorescent microscopy (Zeiss, Germany) at selected magnifications. Captured images were processed using AxioVision Viewer 3.0 software.
Quantitation of Neurite Extensions: Neurites from differentiating neurospheres were estimated from a total of 6-8 neurospheres per condition over three independent experiments. To quantitated neuritis, the average diameter of an individual neurosphere was estimated from the vertical and horizontal distance. The number of extensions leaving the neurosphere body were then counted and an ratio of neurosphere extensions:average neurosphere diameter was calculated for each. All measurements including neurosphere diameter were evaluated using Scion Image.

[2] = system: C2C12 myoblasts; experiment: C2C12 myoblast differentiation in low serum media with caspase inhibitors (MF20 staining, immunoblot of myogenic markers); assay type: cell-based, mouse; settings: 20 μM inhibitor
Description: (§1) Myoblast culture. C2C12 cell (mouse skeletal muscle myoblast) cultures were grown and maintained in DMEM containing 10% FBS with 50 units/ml penicillin and 50 μg/ml streptomycin (Gibco). Differentiation was induced by incubating cultures in DMEM containing only a low serum concentration (2% horse serum). Caspase activity was measured using a Caspase-3 and Caspase-8 Fluorometric Assay Kit (Pharmingen). […] Control cells were treated with an equivalent amount of vehicle (DMSO). Primary myoblast cells were derived from skeletal muscles of the hind- and fore-limbs from 1-2 day old C57BL/6 wild-type, caspase-3 heterozygous and caspase-3 null mice (Frasch, S. C., et al., (1998) J. Biol. Chem. 273, 8389-8397; Kuida, K., et al., (1996) Nature 384, 368-372) (n=5 for each genotype) as described (Cregan, S. P. et al., (1999) J. Neuro. 19, 7860-7869.). To induce differentiation, primary myoblast cultures were incubated in DMEM containing 5% horse serum.
Protein isolation, immunoblot analyses and immunocytochemistry. Cells from C2C12 and primary myoblast cultures were washed with ice-cold PBS and lysed on ice for 45 minutes in modified-RIPA buffer containing 20 mM NaF, 5 mM Na3VO4 and 10 μg/ml each of aprotinin, leupeptin, pepstatin and PMSF. Total protein was measured using the BCA protein assay (Pierce). Immunoblot analyses were performed as described (Creasy, C. L., & Chernoff, J. (1995) J. Biol. Chem. 270, 21695-21700) using antibodies for MST1, MKK6, p38γ, and p38α (Upstate), p38 and MEF2C (Cell Signaling Technologies), myogenin F5D and myosin heavy chain MF20 mAb (Developmental Hybridoma Bank), and active caspase-3 (Biovision).
C2C12 myoblasts were fixed and stained with anti-MF20 as previously described (Cregan, et al., (1999) J. Neuro. 19, 7860-7869). Primary myoblast cultures were fixed in 4% paraformaldehyde, rinsed three times in PBS containing 0.01% Triton X-100 and stained as above. For both C2C12 and primary myoblast cultures, nuclei were detected by incubating cells for 10 min with 4,6-diamidino-2-phenylindole diluted 1:10000 in PBS.
Cells were fixed after 0, 2 and 4 days of differentiation and stained with the myosin heavy chain antibody MF20. […] In contrast, differentiation was more evident in cells that were incubated with caspase-8 inhibitor, z-LETD.fmk (FIG. 2B bottom panel, C).

[3] = target: T1, human MST1 (Mammalian Sterile Twenty-like kinase), full length, in vitro translated from MST1-pcDNA3.1 Myc/His
T1 chain: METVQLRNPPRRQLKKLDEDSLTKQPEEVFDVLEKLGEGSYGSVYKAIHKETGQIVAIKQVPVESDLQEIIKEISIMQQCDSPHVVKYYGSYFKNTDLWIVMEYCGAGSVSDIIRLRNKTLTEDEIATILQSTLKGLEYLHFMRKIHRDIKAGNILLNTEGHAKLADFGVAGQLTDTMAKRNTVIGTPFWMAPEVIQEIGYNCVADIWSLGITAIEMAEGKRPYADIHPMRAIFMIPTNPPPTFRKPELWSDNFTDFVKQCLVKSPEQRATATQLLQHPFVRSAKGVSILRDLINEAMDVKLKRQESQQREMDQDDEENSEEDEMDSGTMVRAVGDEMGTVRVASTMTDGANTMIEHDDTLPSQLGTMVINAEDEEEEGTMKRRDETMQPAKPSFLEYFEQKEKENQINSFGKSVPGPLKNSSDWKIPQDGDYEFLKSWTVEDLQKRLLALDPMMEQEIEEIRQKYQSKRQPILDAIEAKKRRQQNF

[4] = system: C2C12 myoblasts; experiment: Transfection of recombinant active caspase-3 protein into subconfluent C2C12 myoblasts in growth media; assay type: cell-based, mouse
Description: To further test a cell-autonomous role of caspase-3 in inducing myoblast differentiation, active caspase-3 protein was transfected into a subconfluent population of C2C12 myoblasts maintained in growth media. Sub-confluent C2C12 myoblasts were transfected with […] of recombinant active caspase-3 and examined after 12 h for the presence of myosin heavy chain (anti-MF20) detected using a FITC conjugated secondary antibody. A confluent population of cells were incubated in low serum media (differentiation media) to induce myoblast differentiation and examined after 12 h. In all cells examined, nuclei were localised with DAPI staining. The results are shown in FIG. 3, which is representative of 7 trials.

[5] = system: caspase-3-/- primary myoblasts; experiment: Transfection of MST1 constructs into caspase-3-/- primary myoblasts (rescue of myogenesis); assay type: cell-based, mouse; settings: for myotube formation in caspase-3-/- myoblasts: transient transfection, primary caspase-3-/- myoblasts
Description: as §1
(§2) Transfection Assays. The complete open reading frame of the human MST1, [Genbank Accession No. gi|1117790] obtained from a clone bank collection (Stratagene) was inserted into the expression vector pcDNA3.1 Myc/His (Invitrogen). A constitutively active MST1 (MST1-act) was prepared as previously described (Megeney, L. A., et al., (1996) Genes Dev 10, 1173-1183). The integrity of both MST1 and MST1-act were confirmed by sequencing. The kinase activity of these protein products were verified by transient transfection into COS1 cells followed by immunoprecipitation and kinase analysis using Histone-H1 as the target substrate (see below). Transfections with MST1 and MST1-act into both COS1 and primary myoblasts were performed using Lipofectamine Plus (Gibco) as directed in the manufacturer's instructions.
To delineate the effect of MST1 on myogenesis, wild-type MST1, an activated MST1 (aa 1-330, MST1-act) or plasmid alone was transiently transfected into primary myoblasts derived from caspase-3^−/− mice. The activity of these constructs was verified by Histone H1 targeted kinase analysis of MST1 from transiently transfected COS1 cells (FIG. 5A).

[6] = system: Histone H1; experiment: Histone H1 targeted kinase assay of MST1 constructs immunoprecipitated from transfected COS1 cells; assay type: biochemical; settings: transiently transfected COS1 cells, Histone H1 substrate
Description: as §2
Co-immunoprecipitation and kinase analyses. Immunoprecipitation was performed using 150-200 μg of total protein, incubated in modified-RIPA buffer at 4° C. for 16 h containing the respective antibody. Samples were mixed for 1 h with 25 μl of a 50% Protein G (Pharmacia). For co-immunoprecipitation, immunoprecipitates were washed in modified-RIPA buffer, boiled in 1× Lamelli buffer, separated by SDS-PAGE and Western blotted for immunoblot analyses. […] Following SDS-PAGE, gels were dried and phospho-incorporation was analyzed by autoradiography. […]

[7] = system: wildtype primary myoblasts; experiment: Transfection of MST1-act into wildtype primary myoblasts; assay type: cell-based, mouse
Description: as §1
Transfection Assays. The complete open reading frame of the human MST1, [Genbank Accession No. gi|1117790] obtained from a clone bank collection (Stratagene) was inserted into the expression vector pcDNA3.1 Myc/His (Invitrogen). A constitutively active MST1 (MST1-act) was prepared as previously described (Megeney, L. A., et al., (1996) Genes Dev 10, 1173-1183). The integrity of both MST1 and MST1-act were confirmed by sequencing. […]

Molecule: CC[C@H](C)[C@H](NC(=O)OCc1ccccc1)C(=O)N[C@@H](CCC(=O)OC)C(=O)N[C@H](C(=O)N[C@@H](CC(=O)OC)C(=O)CF)[C@@H](C)O [z-IETD.fmk] (Cbz-IE(OMe)TD(OMe)-CH2F)
- neurite extensions / morphological changes [1]: did not affect morphological changes in neurosphere differentiation
- neurite extensions / morphological changes ([1]; listed as IETD): extensive neurite networking present

Molecule: COC(=O)C[C@H](NC(=O)[C@H](C)NC(=O)[C@@H](NC(=O)OCc1ccccc1)C(C)C)C(=O)CF [z-VAD.fmk] (Cbz-Val-Ala-Asp(OMe)-CH2F)
- neurite extensions / morphological changes [1]: gave results similar to caspase 3 inhibition

B1: caspase-3 (endogenous, in lysates or cultures of mouse C2C12 myoblasts and mouse CD1 neurospheres) (protein)
chain: SGIYLDSSYKMDYPEMGICIIINNKNFHKSTGMSSRSGTDVDAANLRETFMGLKYQVRNKNDLTREDILELMDSVSKEDHSKRSSFVCVILSHGDEGVIYGTNGPVELKKLTSFFRGDYCRSLTGKPKLFIIQACRGTELDCGIETDSGTDEEMACQKIPVEADFLYAYSTAPGYYSWRNSKDGSWFIQSLCSMLKLYAHKLEFMHILTRVNRKVATEFESFSLDSTFHAKKQIPCIVSMLTKELYFYH
- proteolytic cleavage of [35S]-methionine labelled MST1 by C2C12 lysates (SDS-PAGE, autoradiography) [3]: the lower 36 kDa MST1 fragment was not apparent in samples where caspase-3 activity was inhibited
- transfected cells undergoing differentiation ([4]; C2C12 in growth media, 20 µg protein, 12 h, myosin heavy chain immunodetection, n=4): > 95%
- morphologic features of apoptosis ([4]; transfected C2C12 expressing myosin heavy chain): did not display any morphologic features normally attributed to apoptosis

More lines, main results first:

- myotube formation ([2]; C2C12, low serum media, MF20 staining, up to 4 days, vs DMSO): minor attenuation of myotube formation
Molecule: COC(=O)CC[C@H](NC(=O)[C@H](CC(C)C)NC(=O)OCc1ccccc1)C(=O)N[C@H](C(=O)N[C@@H](CC(=O)OC)C(=O)CF)[C@@H](C)O [z-LETD.fmk] (Cbz-LE(OMe)TD(OMe)-CH2F)
- degree of differentiation ([2]; C2C12, low serum, vs vehicle treated cells): remained below that observed in vehicle treated cells

- myotube formation in caspase-3-/- myoblasts [5]: remained as mono-nucleated myoblasts
B2: wild-type MST1: complete open reading frame of human MST1 in expression vector pcDNA3.1 Myc/His, transfected (protein)
chain: METVQLRNPPRRQLKKLDEDSLTKQPEEVFDVLEKLGEGSYGSVYKAIHKETGQIVAIKQVPVESDLQEIIKEISIMQQCDSPHVVKYYGSYFKNTDLWIVMEYCGAGSVSDIIRLRNKTLTEDEIATILQSTLKGLEYLHFMRKIHRDIKAGNILLNTEGHAKLADFGVAGQLTDTMAKRNTVIGTPFWMAPEVIQEIGYNCVADIWSLGITAIEMAEGKRPYADIHPMRAIFMIPTNPPPTFRKPELWSDNFTDFVKQCLVKSPEQRATATQLLQHPFVRSAKGVSILRDLINEAMDVKLKRQESQQREMDQDDEENSEEDEMDSGTMVRAVGDEMGTVRVASTMTDGANTMIEHDDTLPSQLGTMVINAEDEEEEGTMKRRDETMQPAKPSFLEYFEQKEKENQINSFGKSVPGPLKNSSDWKIPQDGDYEFLKSWTVEDLQKRLLALDPMMEQEIEEIRQKYQSKRQPILDAIEAKKRRQQNF

- efficiency of differentiation ([5]; caspase-3 knockout myoblasts containing construct): > 85%
B3: MST1-act: constitutively active MST1 (aa 1-330) expressed from pcDNA3.1 Myc/His by transfection (protein, UniProt Q13043 1-330, looked up, fragment)
chain: METVQLRNPPRRQLKKLDEDSLTKQPEEVFDVLEKLGEGSYGSVYKAIHKETGQIVAIKQVPVESDLQEIIKEISIMQQCDSPHVVKYYGSYFKNTDLWIVMEYCGAGSVSDIIRLRNKTLTEDEIATILQSTLKGLEYLHFMRKIHRDIKAGNILLNTEGHAKLADFGVAGQLTDTMAKRNTVIGTPFWMAPEVIQEIGYNCVADIWSLGITAIEMAEGKPPYADIHPMRAIFMIPTNPPPTFRKPELWSDNFTDFVKQCLVKSPEQRATATQLLQHPFVRSAKGVSILRDLINEAMDVKLKRQESQQREVDQDDEENSEEDEMDSGTM
modifications: Myc/His tag
- kinase activity of construct [6]: high level of kinase activity
- myotube formation in caspase-3-/- myoblasts [5]: elongated and fused with neighbouring cells to form multinucleated myotubes; also recorded: differentiated to form fused, multinucleated myotubes
- myogenesis in wildtype myoblasts ([7]; 2 days in differentiation media, vs untransfected wildtype): comparable to wildtype cultures after 4-5 days of differentiation; also recorded: accelerated myogenesis after 2 days
- apoptosis on protracted differentiation ([7]; differentiation time course >4 days): enhanced apoptosis

Reference: patent US20060013804A1, “Modulation of stem cell differentiation by modulation of caspase-3 activity” (Ottawa Health Research Institute, priority 2002, published 2006)
